According to the supplement of paper PMC6757056:
± gives the standard deviation of the averaged measurements.

B1: library; a variant is named by its letters at N, in order (parent)
chain: GCUGUCACCGGUGUAUUACCCUAGUGGUCGACCGGUCUGAUGAGUCUNNNNNNAGACGAAACAGC

Tests used:
hypoxanthine [1] = variants of: B1; assay: normalized RNA/DNA level with ligand (relative to sTRSVctl = 100) (log10 (% of sTRSVctl)); ligand: hypoxanthine (xanthine aptamer); higher = less ribozyme self-cleavage, higher mRNA level; details: ligand concentration (+) RNA-Seq: 5 mM, HEK293T, reporter: mCherry (pCS4076), ligand present: yes
Procedure, shortened: (§1)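 Total RNA, extracted with EDTA 72 h after HEK293T cells were transfected with 4 µg per 6-well well of reporter-linked ribozyme switch library plasmids, was reverse-transcribed, amplified, barcoded and sequenced. Ligand, if used, was added 1 h before transfection. RNA level was derived from RNA reads divided by DNA reads and normalized to a spiked-in non-cleaving sequence or to the top sequences. This was multiplied by 100 and log10-transformed, with the top set of 25 sequences and a ≥100 DNA read minimum.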

hypoxanthine [2] = variants of: B1; assay: normalized RNA/DNA level without ligand (relative to sTRSVctl = 100) (log10 (% of sTRSVctl)); ligand: hypoxanthine (xanthine aptamer); higher = less ribozyme self-cleavage, higher mRNA level; details: HEK293T, reporter: mCherry (pCS4076), ligand present: no
Procedure, shortened: as §1

Row | Variant | normalized RNA/DNA level with ligand (log10) (hypoxanthine [1]) | normalized RNA/DNA level without ligand (log10) (hypoxanthine [2])
1 | GCUGUCACCGGUGUAUUACCCUAGUGGUCGACCGGUCUGAUGAGUCUGGGACCAGACGAAACAGC | 1.98 ± 0.069 | 1.86 ± 0.052
2 | GCUGUCACCGGUGUAUUACCCUAGUGGUCGACCGGUCUGAUGAGUCUGGGACAAGACGAAACAGC | 1.938 ± 0.016 | 1.802 ± 0.011
3 | GCUGUCACCGGUGUAUUACCCUAGUGGUCGACCGGUCUGAUGAGUCUGGGACUAGACGAAACAGC | 1.872 ± 0.0089 | 1.91 ± 0.024
4 | GCUGUCACCGGUGUAUUACCCUAGUGGUCGACCGGUCUGAUGAGUCUAGGAUUAGACGAAACAGC | 1.934 ± 0.0076 | 1.83 ± 0.075
5 | GCUGUCACCGGUGUAUUACCCUAGUGGUCGACCGGUCUGAUGAGUCUAGGAUCAGACGAAACAGC | 1.99 ± 0.046 | 1.944 ± 0.013
6 | GCUGUCACCGGUGUAUUACCCUAGUGGUCGACCGGUCUGAUGAGUCUGGGAACAGACGAAACAGC | 1.964 ± 0.016 | 1.724 ± 0.01
7 | GCUGUCACCGGUGUAUUACCCUAGUGGUCGACCGGUCUGAUGAGUCUCGGAUAAGACGAAACAGC | 1.87 ± 0.041 | 1.51 ± 0.085
8 | GCUGUCACCGGUGUAUUACCCUAGUGGUCGACCGGUCUGAUGAGUCUCGGAUGAGACGAAACAGC | 1.993 ± 0.011 | 1.75 ± 0.028
9 | GCUGUCACCGGUGUAUUACCCUAGUGGUCGACCGGUCUGAUGAGUCUCGGAUCAGACGAAACAGC | 2.018 ± 0.0066 | 1.92 ± 0.028
10 | GCUGUCACCGGUGUAUUACCCUAGUGGUCGACCGGUCUGAUGAGUCUGGGCACAGACGAAACAGC | 1.9407 ± 0.0014 | 1.879 ± 0.012
11 | GCUGUCACCGGUGUAUUACCCUAGUGGUCGACCGGUCUGAUGAGUCUAGCUUUAGACGAAACAGC | 1.94 ± 0.032 | 1.908 ± 0.0022
12 | GCUGUCACCGGUGUAUUACCCUAGUGGUCGACCGGUCUGAUGAGUCUUGGAAAAGACGAAACAGC | 1.91 ± 0.02 | 1.7 ± 0.039
13 | GCUGUCACCGGUGUAUUACCCUAGUGGUCGACCGGUCUGAUGAGUCUUGGAAGAGACGAAACAGC | 1.871 ± 0.018 | 1.556 ± 0.01
14 | GCUGUCACCGGUGUAUUACCCUAGUGGUCGACCGGUCUGAUGAGUCUUGGAACAGACGAAACAGC | 1.89 ± 0.032 | 1.78 ± 0.034
15 | GCUGUCACCGGUGUAUUACCCUAGUGGUCGACCGGUCUGAUGAGUCUAGGCAAAGACGAAACAGC | 1.886 ± 0.0036 | 1.74 ± 0.036
16 | GCUGUCACCGGUGUAUUACCCUAGUGGUCGACCGGUCUGAUGAGUCUUGCUUGAGACGAAACAGC | 1.923 ± 0.019 | 1.85 ± 0.091
17 | GCUGUCACCGGUGUAUUACCCUAGUGGUCGACCGGUCUGAUGAGUCUUGCUUUAGACGAAACAGC | 1.96 ± 0.064 | 1.94 ± 0.0096
18 | GCUGUCACCGGUGUAUUACCCUAGUGGUCGACCGGUCUGAUGAGUCUUGGACUAGACGAAACAGC | 1.93 ± 0.033 | 1.9 ± 0.032
19 | GCUGUCACCGGUGUAUUACCCUAGUGGUCGACCGGUCUGAUGAGUCUUGGACAAGACGAAACAGC | 1.95 ± 0.021 | 1.812 ± 0.0084
20 | GCUGUCACCGGUGUAUUACCCUAGUGGUCGACCGGUCUGAUGAGUCUUGGACCAGACGAAACAGC | 1.98 ± 0.049 | 1.95 ± 0.017
21 | GCUGUCACCGGUGUAUUACCCUAGUGGUCGACCGGUCUGAUGAGUCUCGGCACAGACGAAACAGC | 1.923 ± 0.016 | 1.733 ± 0.0076

Row | Variant | normalized RNA/DNA level with ligand (log10) (hypoxanthine [1]) | normalized RNA/DNA level without ligand (log10) (hypoxanthine [2])
22 | GCUGUCACCGGUGUAUUACCCUAGUGGUCGACCGGUCUGAUGAGUCUCGGCAAAGACGAAACAGC | 1.88 ± 0.024 | 1.529 ± 0.011
23 | GCUGUCACCGGUGUAUUACCCUAGUGGUCGACCGGUCUGAUGAGUCUUGGCACAGACGAAACAGC | 2 ± 0.034 | 1.913 ± 0.019
24 | GCUGUCACCGGUGUAUUACCCUAGUGGUCGACCGGUCUGAUGAGUCUUGGCAAAGACGAAACAGC | 1.917 ± 0.015 | 1.77 ± 0.03
25 | GCUGUCACCGGUGUAUUACCCUAGUGGUCGACCGGUCUGAUGAGUCUAGGAAUAGACGAAACAGC | 1.906 ± 0.017 | 1.739 ± 0.0039
26 | GCUGUCACCGGUGUAUUACCCUAGUGGUCGACCGGUCUGAUGAGUCUCGGAGCAGACGAAACAGC | 1.944 ± 0.019 | 1.67 ± 0.046
27 | GCUGUCACCGGUGUAUUACCCUAGUGGUCGACCGGUCUGAUGAGUCUCGGAGAAGACGAAACAGC | 1.93 ± 0.044 | 1.617 ± 0.012
28 | GCUGUCACCGGUGUAUUACCCUAGUGGUCGACCGGUCUGAUGAGUCUCGGAACAGACGAAACAGC | 1.85 ± 0.026 | 1.51 ± 0.072
29 | GCUGUCACCGGUGUAUUACCCUAGUGGUCGACCGGUCUGAUGAGUCUGGGAUAAGACGAAACAGC | 1.95 ± 0.053 | 1.69 ± 0.0074
30 | GCUGUCACCGGUGUAUUACCCUAGUGGUCGACCGGUCUGAUGAGUCUGGGAUCAGACGAAACAGC | 1.94 ± 0.075 | 1.861 ± 0.018
31 | GCUGUCACCGGUGUAUUACCCUAGUGGUCGACCGGUCUGAUGAGUCUGGGAUUAGACGAAACAGC | 1.9914 ± 0.00078 | 1.817 ± 0.014
32 | GCUGUCACCGGUGUAUUACCCUAGUGGUCGACCGGUCUGAUGAGUCUCGCUUGAGACGAAACAGC | 1.91 ± 0.07 | 1.93 ± 0.076
33 | GCUGUCACCGGUGUAUUACCCUAGUGGUCGACCGGUCUGAUGAGUCUCGCUUUAGACGAAACAGC | 1.911 ± 0.01 | 1.859 ± 0.009
34 | GCUGUCACCGGUGUAUUACCCUAGUGGUCGACCGGUCUGAUGAGUCUAGGACAAGACGAAACAGC | 1.89 ± 0.066 | 1.71 ± 0.042
35 | GCUGUCACCGGUGUAUUACCCUAGUGGUCGACCGGUCUGAUGAGUCUCGGACUAGACGAAACAGC | 1.95 ± 0.042 | 1.79 ± 0.024
36 | GCUGUCACCGGUGUAUUACCCUAGUGGUCGACCGGUCUGAUGAGUCUCGGACCAGACGAAACAGC | 1.94 ± 0.037 | 1.94 ± 0.049
37 | GCUGUCACCGGUGUAUUACCCUAGUGGUCGACCGGUCUGAUGAGUCUCGGACGAGACGAAACAGC | 2.01 ± 0.03 | 1.72 ± 0.043
38 | GCUGUCACCGGUGUAUUACCCUAGUGGUCGACCGGUCUGAUGAGUCUUGGAUAAGACGAAACAGC | 1.96 ± 0.042 | 1.84 ± 0.02
39 | GCUGUCACCGGUGUAUUACCCUAGUGGUCGACCGGUCUGAUGAGUCUUGGAUCAGACGAAACAGC | 1.99 ± 0.04 | 1.95 ± 0.027
40 | GCUGUCACCGGUGUAUUACCCUAGUGGUCGACCGGUCUGAUGAGUCUUGGAUUAGACGAAACAGC | 1.97 ± 0.021 | 1.824 ± 0.0038
41 | GCUGUCACCGGUGUAUUACCCUAGUGGUCGACCGGUCUGAUGAGUCUGGCUUUAGACGAAACAGC | 2.025 ± 0.0095 | 1.982 ± 0.006
42 | GCUGUCACCGGUGUAUUACCCUAGUGGUCGACCGGUCUGAUGAGUCUGGCUUGAGACGAAACAGC | 1.93 ± 0.071 | 1.66 ± 0.04
